{"source": "paper PMC4358968", "about": "“Lipid-Free Antigen B Subunits from Echinococcus granulosus: Oligomerization, Ligand Binding, and Membrane Interaction Properties” (PLoS Neglected Tropical Diseases, 2015)", "key": {"[1]": {"target": "recombinant EgAgB8/3 subunit of Echinococcus granulosus antigen B (Echinococcus granulosus)", "assay": "SEC; 100 uL of lipid-free EgAgB8/2 (324 uM) or EgAgB8/3 (320 uM) loaded separately on Superdex 200 HR 10/30 in PBS, 0.5 mL/min; apparent molecular weight against BSA, carbonic anhydrase and cytochrome c"}, "[2]": {"target": "recombinant EgAgB8/2 subunit of Echinococcus granulosus antigen B (Echinococcus granulosus)", "assay": "SEC; 100 uL of lipid-free EgAgB8/2 (324 uM) or EgAgB8/3 (320 uM) loaded separately on Superdex 200 HR 10/30 in PBS, 0.5 mL/min; apparent molecular weight against BSA, carbonic anhydrase and cytochrome c"}, "[3]": {"target": "T1, EgAgB8/3 (antigen B subunit 3)", "T1 construct": "gene EgAgB3; recombinant lipid-free (RP-HPLC delipidated) EgAgB8/3 mature subunit, GST fusion cleaved with thrombin; GenBank AAK64236", "assay": "fluorimetric titration of 12-AS (direct probe binding, TBS)", "design": "species or system Echinococcus granulosus"}, "[4]": {"target": "T2, EgAgB8/2 (antigen B subunit 2) (Echinococcus granulosus, UniProt Q27275)", "T2 construct": "gene AgB2; recombinant lipid-free (RP-HPLC delipidated) EgAgB8/2 mature subunit, GST fusion cleaved with thrombin; GenBank AAC47169", "assay": "fluorimetric titration of 12-AS (direct probe binding, […]°C, TBS)"}}, "data": [{"molecule": "recombinant EgAgB8/3 subunit of Echinococcus granulosus antigen B (natural protein)", "values": [{"measurement": "stoichiometry N", "setting": "[1]", "result": "4 to 5", "unit": "subunits"}]}, {"molecule": "recombinant EgAgB8/2 subunit of Echinococcus granulosus antigen B (natural protein)", "values": [{"measurement": "stoichiometry N", "setting": "[2]", "result": "7 to 8", "unit": "subunits"}]}, {"molecule": "CCCCCCC(CCCCCCCCCCC(=O)O)OC(=O)c1c2ccccc2cc2ccccc12", "note": "(stereo not shown) [12-AS, 12-(9-anthroyloxy) stearic acid]", "values": [{"measurement": "Kd", "setting": "[3]", "result": "0.34 ± 0.02", "unit": "µM"}, {"measurement": "Kd", "setting": "[4]", "result": "0.16 ± 0.09", "unit": "µM"}]}]}
